From US20090291081A1 (AbbVie / Abbott, published 2009) come the findings set out here.

“And” between values parts separate entries of the source, which are not always exact repeats. Identical values can stand only once.

Assay [1] deals with T1, human IL-1α (human, UniProt P01583 113-271).
T1 sequence (looked up): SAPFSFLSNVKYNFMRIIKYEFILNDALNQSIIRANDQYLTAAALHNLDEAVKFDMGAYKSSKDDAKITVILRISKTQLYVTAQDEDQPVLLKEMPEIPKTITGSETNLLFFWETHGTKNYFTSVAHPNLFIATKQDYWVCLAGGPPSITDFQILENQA
Nature of the assay: cell-based or functional assay.

Assay [2] addresses T2, human IL-1β (human, UniProt P01584 117-269). In words: cell-based or functional assay.
Assay [3] concerns the target T1, human IL-1α. In words: cell-based or functional assay. The source holds these as a separate data set.
For assay [4], the target named is T2, human IL-1β. In words: cell-based or functional assay. The source holds these as a separate data set.
Assay [5] deals with T2, human IL-1β. In words: yeast surface Fab display, flow cytometry titration.

B1: ABT2-65-17/ABT1-141-25 hu IgG1/K wt (bispecific antibody, V domains shown)
VH: EVQLLESGGGLVQPGGSLRLSCVASGFTFEDYQMGWVRQAPGKGLEWVSSISAMGNRTYYADSVKGRFTISRDDSKNTLYLQMNSLRAEDTAVYYCAQNLVRLGRSRWMFDYWGQGTLVTVSS
VL: DIQMTQSPSSLSASVGDRVTITCRASQWIQKQLAWYQQKPGKAPKLLIYSSSYLQSGVPSRFSGSGSGTDFTLTISSLQPEDFATYYCQQHLRVPMTFGQGTKVEIKR
B1: in assay [1], the “IL-1α IC50” value stood at 400 nM. In assay [2], the “IL-1β IC50” value turned out to be 1 nM. Moreover, the “MRC5 IL-1α” value in assay [3] was 400 nM. In addition, the “MRC5 IL-1β” value in assay [4] was determined as 0.975 nM.

B2: ABT2-65-17/ABT1-95-15 huIgG1/K wt (bispecific antibody, V domains shown)
VH: EVQLLESGGGLVQPGGSLRLSCVASGFTFEDYQMGWVRQAPGKGLEWVSSISAMGNRTYYADSVKGRFTISRDDSKNTLYLQMNSLRAEDTAVYYCAQNLVRLGRSRWMFDYWGQGTLVTVSS
VL: DIQMTQSPSSLSASVGDRVTITCRASQPIVRNLRWYQQKPGKAPKLLIYSSSYLEPGVPSRFSGSGSGTDFTLTISSLQPEDFATYHCQQGYRWPVTFGQGTKVEIKR
As to B2, in assay [3], the “MRC5 IL-1α” value stood at 2.7 nM. The “MRC5 IL-1β” value in assay [4] is 0.094 nM.

B3: ABT2-108/ABT1-141 hu IgG1/K wt (bispecific antibody, V domains shown)
VH: EVQLLESGGGLVQPGGSLRLSCAASGFTFAEYTMMWVRQAPGKGLEWVSRIGQDGKNTYYADSVKGRFTISRDNSKNTLYLQMNSLRAEDTAVYYCAKYTGRVGVHHLFDYWGQGTLVTSS
VL: DIQMTQSPSSLSASVGDRVTITCRASQWIQKQLAWYQQKPGKAPKLLIYSSSYLQSGVPRFSGSGSGTDFTLTISSLQPEDFATYYCQQHLRVPFTFGQGTKVEIKR
Regarding B3, the “IL-1α IC50” value in assay [1] was 1000 nM and 1500 nM and 3000 nM. For the same molecule, the “MRC5 IL-1α” value in assay [3] stood at 1500 nM. In addition, the “MRC5 IL-1β” value in assay [4] was determined as 22 nM.

B4: ABT2-108/ABT1-95-3 hu IgG1/K wt (bispecific antibody, V domains shown)
VH: EVQLLESGGGLVQPGGSLRLSCAASGFTFAEYTMMWVRQAPGKGLEWVSRIGQDGKNTYYADSVKGRFTISRDNSKNTLYLQMNSLRAEDTAVYYCAKYTGRVGVHHLFDYWGQGTLVTSS
VL: DIQMTQSPSSLSASVGDRVTITCRASQPIHGNLRWYQQKPGKAPKLLIYSSSYLQSGVPSRFSGSGSGTDFTLTISSLQPEDFATYHCQQGYRWPVTFGQGTKVEIKR
Turning to B4, the “IL-1α IC50” value in assay [1] amounted to 1500 nM. Moreover, the “IL-1β IC50” value in assay [2] came to 200 nM. The “MRC5 IL-1α” value in assay [3] came to 300 nM.

B5: ABT2-108-538x/ABT1-122-511 hu IgG1/K wt (bispecific antibody, V domains shown)
VH: EVQLLESGGGLVQPGGSLRLSCAASGFTFADEGMMWVRQAPGKGLEWVSRITYSGKNTYYADSVKGRFTISRDNSKNTLYLQMNSLRAEDTAVYYCAKYTGRILGHHLFDYWGQGTLVTVSS
VL: DIQMTQSPSSLSASVGDRVTITCRASQPIWTELNWYQQKPGKAPKLLIYGSSSLQRGVPSRFSGSGSGTDFTLTISSLQPEDFATYYCKQFAYFPATFGQGTKVEIKR
For the molecule B5, in assay [2], the “IL-1β IC50” value is 0.006 nM and 0.009 nM and 0.01 nM. Moreover, in assay [3], the “MRC5 IL-1α” value was 259 nM. The “MRC5 IL-1β” value in assay [4] is 0.009 nM.

B6: ABT2-108-538x/ABT1-122-750x hu IgG1/K wt (bispecific antibody, V domains shown)
VH: EVQLLESGGGLVQPGGSLRLSCAASGFTFADEGMMWVRQAPGKGLEWVSRITYSGKNTYYADSVKGRFTISRDNSKNTLYLQMNSLRAEDTAVYYCAKYTGRILGHHLFDYWGQGTLVTVSS
VL: DIQMTQSPSSLSASVGDRVAITCSASQHIWTEISWYQQKPGKAPKLLIYGSASRQKGVPSRFSGSGSGTDFTLTISSLQPEDFATYYCKQFAYFPNTFGQGTKVEIKR
B6: the “IL-1β IC50” value in assay [2] was 0.005 nM and 0.008 nM and 0.01 nM. The “MRC5 IL-1α” value in assay [3] was determined as 75 nM. In addition, the “MRC5 IL-1β” value in assay [4] amounted to 0.0094 nM.

B7: ABT2-108-538x/ABT1-95-A3 hu IgG1mut 234, 235/K (bispecific antibody, V domains shown)
VH: EVQLLESGGGLVQPGGSLRLSCAASGFTFADEGMMWVRQAPGKGLEWVSRITYSGKNTYYADSVKGRFTISRDNSKNTLYLQMNSLRAEDTAVYYCAKYTGRILGHHLFDYWGQGTLVTVSS
VL: DIQMTQSPSSLSASVGDRVTITCRASKPGVRNMRWYQQKPGKAPKLLIYSVSYLEPGVPSRFSGSGSGTDFTLTISSLQPEDFATYHCLQGYRWPPTFGQGTKVEIKR
For B7, the “IL-1α IC50” value in assay [1] was 0.095 nM. For the same molecule, the “IL-1β IC50” value in assay [2] was 0.035 nM. The “MRC5 IL-1α” value in assay [3] was 0.032 nM. Besides, in assay [4], the “MRC5 IL-1β” value came out at 0.023 nM.

B8: IgG pairing ABT1-122-750X with ABT2-65-17 (bispecific antibody, V domains shown)
VH: EVQLLESGGGLVQPGGSLRLSCVASGFTFEDYQMGWVRQAPGKGLEWVSSISAMGNRTYYADSVKGRFTISRDDSKNTLYLQMNSLRAEDTAVYYCAQNLVRLGRSRWMFDYWGQGTLVTVSS
VL: DIQMTQSPSSLSASVGDRVAITCSASQHIWTEISWYQQKPGKAPKLLIYGSASRQKGVPSRFSGSGSGTDFTLTISSLQPEDFATYYCKQFAYFPNTFGQGTKVEIKR
As to B8, the “MRC5 IL-1α” value in assay [3] amounted to 20 nM. Also, in assay [4], the “MRC5 IL-1β” value turned out to be 1 nM.

B9: ABT2-108-606/ABT1-122 Fab on yeast surface (Fab, V domains shown)
VH: EVQLLESGGGLVQPGGSLRLSCAASGFTFAEYTMMWVRQAPGKGLEWVSRIGQDGKNTYYRSSVKGRFTISRDNSKNTLYLQMNSLRAEDTAVYYCAKYTGRVGVHHLFDYWGQGTLVTVSS
VL: DIQMTQSPSSLSASVGDRVTITCRASQPIWTELNWYQQKPGKAPKLLIYGSSSLQSGVPSRFSGSGSGTDFTLTISSLQPEDFATYYCQQFAYFPATFGQGTKVEIKR
Take B9: in assay [5], the response was half-maximal at 0.343 nM (EC50).

B10: ABT2-108-608/ABT1-122 Fab on yeast surface (Fab, V domains shown)
VH: EVQLLESGGGLVQPGGSLRLSCAASGFTFAEYTMMWVRQAPGKGLEWVSRIGQDGKNTYTRDSVKGRFTISRDNSKNTLYLQMNSLRAEDTAVYYCAKYTGRVGVHHLFDYWGQGTLVTVSS
VL: DIQMTQSPSSLSASVGDRVTITCRASQPIWTELNWYQQKPGKAPKLLIYGSSSLQSGVPSRFSGSGSGTDFTLTISSLQPEDFATYYCQQFAYFPATFGQGTKVEIKR
B10 gave a half-maximal effective concentration (EC50) in assay [5] of 0.366 nM.

B11: ABT2-108-617/ABT1-122 Fab on yeast surface (Fab, V domains shown)
VH: EVQLLESGGGLVQPGGSLRLSCAASGFTFAEYTMMWVRQAPGKGLEWVSRIGQDGKNTYYADSVKGRFTISRDNSKNTLYLQMNSLRAEDTAVYYCAKYTGRIFTHHLFDYWGQGTLVTVSS
VL: DIQMTQSPSSLSASVGDRVTITCRASQPIWTELNWYQQKPGKAPKLLIYGSSSLQSGVPSRFSGSGSGTDFTLTISSLQPEDFATYYCQQFAYFPATFGQGTKVEIKR
In the case of B11, in assay [5], it took 0.224 nM to reach a half-maximal effect (EC50) and the “fold improvement in affinity over ABT2-108” value (from here on “fold improvement in affinity”) is 25 fold.

B12: ABT2-108-603/ABT1-122 Fab on yeast surface (Fab, V domains shown)
VH: EVQLLESGGGLVQPGGSLRLSCAASGFTFAEYTMMWVRQAPGKGLEWVSRITDAGKNTYYADSVKGRFTISRDNSKNTLYLQMNSLRAEDTAVYYCAKYTGRVGVHHLFDYWGQGTLVTVSS
VL: DIQMTQSPSSLSASVGDRVTITCRASQPIWTELNWYQQKPGKAPKLLIYGSSSLQSGVPSRFSGSGSGTDFTLTISSLQPEDFATYYCQQFAYFPATFGQGTKVEIKR
In turn, B12 gave an EC50 in assay [5] of 1.35 nM.

B13: ABT2-108-616/ABT1-122 Fab on yeast surface (Fab, V domains shown)
VH: EVQLLESGGGLVQPGGSLRLSCAASGFTFAEYTMMWVRQAPGKGLEWVSRIGQDGKNTYYADSVKGRFTISRDNSKNTLYLQMNSLRAEDTAVYYCAKYTGRIYNHHLFDYWGQGTLVTVSS
VL: DIQMTQSPSSLSASVGDRVTITCRASQPIWTELNWYQQKPGKAPKLLIYGSSSLQSGVPSRFSGSGSGTDFTLTISSLQPEDFATYYCQQFAYFPATFGQGTKVEIKR
Take B13: a half-maximal effect in assay [5] (EC50) was put at 0.324 nM.

B14: ABT2-108-614/ABT1-122 Fab on yeast surface (Fab, V domains shown)
VH: EVQLLESGGGLVQPGGSLRLSCAASGFTFAEYTMMWVRQAPGKGLEWVSRIGQDGKNTYYADSVKGRFTISRDNSKNTLYLQMNSLRAEDTAVYYCAKYTGRILRHHLFDYWGQGTLVTVSS
VL: DIQMTQSPSSLSASVGDRVTITCRASQPIWTELNWYQQKPGKAPKLLIYGSSSLQSGVPSRFSGSGSGTDFTLTISSLQPEDFATYYCQQFAYFPATFGQGTKVEIKR
With B14, in assay [5], the EC50 came to 1.01 nM.

B15: ABT2-108-615/ABT1-122 Fab on yeast surface (Fab, V domains shown)
VH: EVQLLESGGGLVQPGGSLRLSCAASGFTFAEYTMMWVRQAPGKGLEWVSRIGQDGKNTVIRDSVKGRFTISRDNSKNTLYLQMNSLRAEDTAVYYCAKYTGRVGVHHLFDYWGQGTLVTVSS
VL: DIQMTQSPSSLSASVGDRVTITCRASQPIWTELNWYQQKPGKAPKLLIYGSSSLQSGVPSRFSGSGSGTDFTLTISSLQPEDFATYYCQQFAYFPATFGQGTKVEIKR
In the case of B15, in assay [5], the EC50 was determined as 0.214 nM and the “fold improvement in affinity” value stood at 25 fold.

B16: ABT2-108-605/ABT1-122 Fab on yeast surface (Fab, V domains shown)
VH: EVQLLESGGGLVQPGGSLRLSCAASGFTFAEYTMMWVRQAPGKGLEWVSRIGQDGKNTYYREDVKGRFTISRDNSKNTLYLQMNSLRAEDTAVYYCAKYTGRVGVHHLFDYWGQGTLVTVSS
VL: DIQMTQSPSSLSASVGDRVTITCRASQPIWTELNWYQQKPGKAPKLLIYGSSSLQSGVPSRFSGSGSGTDFTLTISSLQPEDFATYYCQQFAYFPATFGQGTKVEIKR
With B16, in assay [5], the EC50 was 0.21 nM.

B17: ABT2-108-604/ABT1-122 Fab on yeast surface (Fab, V domains shown)
VH: EVQLLESGGGLVQPGGSLRLSCAASGFTFAEYTMMWVRQAPGKGLEWVSRVTYDGKNTYYADSVKGRFTISRDNSKNTLYLQMNSLRAEDTAVYYCAKYTGRVGVHHLFDYWGQGTLVTVSS
VL: DIQMTQSPSSLSASVGDRVTITCRASQPIWTELNWYQQKPGKAPKLLIYGSSSLQSGVPSRFSGSGSGTDFTLTISSLQPEDFATYYCQQFAYFPATFGQGTKVEIKR
On to B17, for which, in assay [5], a half-maximal effect (EC50) was put at 1.35 nM and the “fold improvement in affinity” value was 5 fold.

B18: ABT2-108-612/ABT1-122 Fab on yeast surface (Fab, V domains shown)
VH: EVQLLESGGGLVQPGGSLRLSCAASGFTFAEYTMMWVRQAPGKGLEWVSRIGQDGKNTYYADSVKGRFTISRDNSKNTLYLQMNSLRAEDTAVYYCAKYTGRIMGHHLFDYWGQGTLVTVSS
VL: DIQMTQSPSSLSASVGDRVTITCRASQPIWTELNWYQQKPGKAPKLLIYGSSSLQSGVPSRFSGSGSGTDFTLTISSLQPEDFATYYCQQFAYFPATFGQGTKVEIKR
With B18, in assay [5], the EC50 was 0.267 nM.
